From US20030143656A1 (published 2003)
Residue numbers refer to the chain shown, from its start. Names may count otherwise.

T1: GST-PDK1 (wild type) (human, UniProt O15530 1-556)
T1 sequence (looked up): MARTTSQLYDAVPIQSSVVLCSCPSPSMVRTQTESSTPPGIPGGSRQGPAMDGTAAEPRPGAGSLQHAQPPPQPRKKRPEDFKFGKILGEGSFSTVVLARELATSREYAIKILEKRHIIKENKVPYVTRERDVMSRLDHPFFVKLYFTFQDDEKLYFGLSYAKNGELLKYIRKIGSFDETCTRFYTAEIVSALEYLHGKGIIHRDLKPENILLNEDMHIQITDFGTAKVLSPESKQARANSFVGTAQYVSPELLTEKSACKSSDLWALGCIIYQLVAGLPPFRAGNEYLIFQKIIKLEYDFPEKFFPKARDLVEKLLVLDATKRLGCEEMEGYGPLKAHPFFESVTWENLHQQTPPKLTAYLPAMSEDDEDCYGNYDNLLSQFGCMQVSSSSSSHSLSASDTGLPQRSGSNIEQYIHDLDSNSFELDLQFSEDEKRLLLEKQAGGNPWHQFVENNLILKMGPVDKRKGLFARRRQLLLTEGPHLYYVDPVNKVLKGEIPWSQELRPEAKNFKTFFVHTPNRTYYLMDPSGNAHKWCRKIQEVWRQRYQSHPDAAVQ

T2: GST-PDK1 L155E (human, UniProt O15530 1-556)
T2 construct: range 1-556; not shown: N-terminal GST tag, pEBG2T vector
T2 sequence (looked up): T1 sequence (looked up) with L155E

B1: GST-PDK1 K115A (enzyme, not shown: a dimerising Fc or GST; small tags and cut ends)
chain: T1 sequence (looked up) with K115A
B2: GST-PDK1 L155A (enzyme, human, UniProt O15530 1-556, looked up)
chain: T1 sequence (looked up) with L155A
notes: range 1-556; not shown: N-terminal GST tag, pEBG2T vector
B3: GST-PDK1 Q150A (enzyme, human, UniProt O15530 1-556, looked up)
chain: T1 sequence (looked up) with Q150A
notes: as for B2
B4: full length S6K1 mutant in which Thr412 and all five phosphorylated C-terminal residues were mutated to acidic residues (enzyme, human, UniProt P23443 1-525, looked up)
chain: MRRRRRRDGFYPAPDFRDREAEDMAGVFDIDLDQPEDAGSEDELEEGGQLNESMDHGGVGPYELGMEHCEKFEISETSVNRGPEKIRPECFELLRVLGKGGYGKVFQVRKVTGANTGKIFAMKVLKKAMIVRNAKDTAHTKAERNILEEVKHPFIVDLIYAFQTGGKLYLILEYLSGGELFMQLEREGIFMEDTACFYLAEISMALGHLHQKGIIYRDLKPENIMLNHQGHVKLTDFGLCKESIHDGTVTHTFCGTIEYMAPEILMRSGHNRAVDWWSLGALMYDMLTGAPPFTGENRKKTIDKILKCKLNLPPYLTQEARDLLKKLLKRNAASRLGAGPGDAGEVQAHPFFRHINWEELLARKVEPPFKPLLQSEEDVSQFDSKFTRQTPVDSPDDSTLSESANQVFLGFEYVAPSVLESVKEKFSFEPKIRDPRRFIGDPREPVDPVKFDPGDFWGRGASASTANPQTPVEYPMETSGIEQMDVTMSGEASAPLPIRQPNSGPYKKQAFPMISKRPEHLRMNL
notes: mature
B5: PIFtide (peptide)
peptide: REPRILSEEEQEMFRDFDYIADWC

Assays:
[1] = target: T1, GST-PDK1 (wild type); experiment: cell-based or functional assay
[2] = target: B5; experiment: method not stated (reference mark lost)
[3] = target: B5; experiment: method not stated (unpublished data)
[4] = target: T2, GST-PDK1 L155E; experiment: binding experiment not described (presumably pull-down)
Method: Binding of PDK1 to SGK1 and S6K1. For the data presented in FIG. 22, 293 cells were cotransfected with 10 μg of the wild type or mutant PDK1 plasmid and 10 μg of either the wild type or mutant S6K1 or SGK1. 36 h post-transfection the cells were lysed in 0.6 ml of Buffer A and the lysates were cleared by centrifugation at 13 000×g for 10 min at 2° C., and 0.5 ml of supernatant was incubated for 2 h at 4° C. with 30 μl of glutathione-Sepharose. The beads were washed twice in Buffer A containing 0.5 M NaCl, followed by two further washes in Buffer A. The beads were resuspended in 30 μl Laemmli Sample Buffer and subjected to SDS polyacrylamide gel electrophoresis. The gels were either stained with Coomassie blue, or analysed by immunoblotting with either anti-Flag or anti-Myc antibodies (described below).
Interaction of S6K1 and SGK1 with PDK1. […] We therefore tested whether this could be explained by the inability of full length S6K1 to interact with PDK1. To test this hypothesis we coexpressed in 293 cells GST-PDK1 together with full length S6K1, fill length S6K1[T412E] and the C-terminal truncated forms of these mutants (S6K1-T2 and S6K1-T2[T412E]) which have Flag epitope tags. Glutathione-Sepharose “pull-downs” of GST-PDK1 from these extracts were immunoblotted for the presence of Flag epitope tagged S6K1. […] S6K1-T2[T412E] interacted moderately better with GST-PDK1 compared to S6K1-T2.

[5] = target: B3; experiment: cell-based or functional assay
[6] = target: B2; experiment: cell-based or functional assay
[7] = target: B1; experiment: cell-based or functional assay

Binder: REPRILSEEEQEMFRDFAYLADWC [D978A-PIFtide]
- fold decrease in activation of PDK1 towards T308tide, against wild type PIFtide [1]: 8 fold

Binder: B1
- fold decrease in affinity for PIFtide [2]: ~10 fold

Binder: B2
- fold decrease in affinity for PIFtide [3]: ~10 fold

Binder: B3
- fold decrease in affinity for PIFtide [2]: ~10 fold

Binder: B4
- binding result [4]: no binding

Binder: B5
- inhibition by 2 µM PIFtide of the activation of S6K1-T2[T412E] and SGK1[T422D] by the PDK1 mutant [5]: ~50%
- inhibition by 35 µM PIFtide of the activation of S6K1-T2[T412E] and SGK1[T422D] by the PDK1 mutant [5]: > 95%
- stimulation of the PDK1 mutant towards T308tide by PIF [5]: ~2 fold
- inhibition by 2 µM PIFtide of the activation of S6K1-T2[T412E] and SGK1[T422D] by the PDK1 mutant [6]: ~50%
- inhibition by 35 µM PIFtide of the activation of S6K1-T2[T412E] and SGK1[T422D] by the PDK1 mutant [6]: > 95%
- increase of PDK1 activity towards T308tide [1]: ≤ 4 fold
- increase of TM50 (heat inactivation of GST-PDK1) [1]: 8 to 10 °C
- inhibition by 2 µM PIFtide of the activation of S6K1[T412E] by wild type PDK1 [1]: > 20 fold
- inhibition by 2 µM PIFtide of the activation of S6K1-T2[T412E] and SGK1[T422D] by the PDK1 mutant [7]: ~50%
- inhibition by 35 µM PIFtide of the activation of S6K1-T2[T412E] and SGK1[T422D] by the PDK1 mutant [7]: > 95%
